Reference: PMC4987395

Target: Arabidopsis thaliana plasmodesmata-located protein 1 (PDLP1) fused to RFP (Arabidopsis thaliana) (UniProt Q8GXV7)
Assay: FRET or BRET; FRET-FLIM: GFP on the MP as donor, RFP on PDLP1 as acceptor; co-expressed by agroinfiltration in N. benthamiana leaves, measured at spots in plasmodesmata; donor fluorescence lifetime by time-correlated single-photon counting

Chain of UniProt Q8GXV7 (Q8GXV7 22-303): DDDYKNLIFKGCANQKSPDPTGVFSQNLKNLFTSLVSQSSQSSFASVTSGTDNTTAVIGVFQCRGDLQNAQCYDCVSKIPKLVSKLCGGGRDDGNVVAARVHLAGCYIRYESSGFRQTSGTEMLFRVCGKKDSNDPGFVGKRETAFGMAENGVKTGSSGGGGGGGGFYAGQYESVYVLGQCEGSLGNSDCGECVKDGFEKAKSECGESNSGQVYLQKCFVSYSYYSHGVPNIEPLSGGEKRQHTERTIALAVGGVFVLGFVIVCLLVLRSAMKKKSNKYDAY

| Substance | FRET efficiency [%] |
| --- | --- |
| grapevine fanleaf virus (GFLV) 2B movement protein with GFP fused at its N-terminus (natural protein) | 6.7 |
| cowpea mosaic virus (CPMV) movement protein (48K) fused at its C-terminus to GFP (natural protein) | 7.5 |
